29 molecules from US20220259593A1, “CONTROL OF MAMMALIAN GENE DOSAGE USING CRISPR” (The Regents of the University of California, priority 2019, published 2022) can be followed below.

To fix the notation:
B1: cr916 (nucleic acid)
guide: GTTTAAGAGCTAAGCTGGAAACAGCATAGCAAGTTTAAATAAGACTAGTTCGTTATCAACTTGAGAAAGTGGCACCGAGTCGGTGCT
modifications: listed as DNA, chemistry not fully specified
B2: cr905 (nucleic acid)
guide: GTTTAAGAGCTAAGCTGGAAACAGCATAGCAAGTTTAAATAAGGCTAGTCCGTTATCAACTTGAAAAAGTGATACCAAGTTGGTATT
modifications: listed as DNA, chemistry not fully specified
B3: cr484 (nucleic acid)
guide: GTTTAAGAGCTAAGCTGGAAACAGCATAGCAAGTTTAAATAAGGCTAGTCCGTTATCAACTTGAAAAAGTGCCACCAAGTTGGTGGT
modifications: listed as DNA, chemistry not fully specified
B4: cr697 (nucleic acid)
guide: GTTTAAGAGCTAAGCTGGAAACAGCATTGCAAGTTTAAATAAGGCGAGTCCGTTATCAACTTGCAAAAGTGGCACCGAGTCGGTGCT
modifications: listed as DNA, chemistry not fully specified
B5: cr104 (nucleic acid)
guide: GTTTAAGAGCTAAGCTGGAAACAGCATAGCAAGTTTAAATAAGGCTAGTCCGTTATCAACTTGAAAAAGTGGAACCGAGTCGGTGCT
modifications: listed as DNA, chemistry not fully specified
B6: cr164 (nucleic acid)
guide: GTTTAAGAGCTAAGCTGGAAACAGCATAGCAAGTTTAAATAAGGCTAGTCCGTTATCAACTTGAAAAAGTGGCCCCGAGTCGGTGCT
modifications: listed as DNA, chemistry not fully specified
B7: cr876 (nucleic acid)
guide: GTTTAAGAGCTAAGCTGGAAACAGCATAGCAAGTTTAAATAAGGCTAGTCCGTTATCAACTTGAAAAAGTGGCACCGAGTCAGTGCT
modifications: listed as DNA, chemistry not fully specified
B8: cr911 (nucleic acid)
guide: GTTTAAGAGCTAAGCTGGAAACAGCATAGCAAGTTTAAATAAGGCACGTCCGTTATCAACTTGAAAAAGTGGCACCGAATCGGTGCT
modifications: listed as DNA, chemistry not fully specified
B9: cr199 (nucleic acid)
guide: GTTTAAGAGCTAAGCTGGAAACAGCATAGCAAGTTTAAATAAGGCTAGTCCGTTATCAACTTGAGAAAGTGGCACCTAGTAGGTGCT
modifications: listed as DNA, chemistry not fully specified
B10: cr740 (nucleic acid)
guide: GTTTAAGAGCTAAGCTGGAAACAGCATAGCAAGTTTAAATAAGGCTAGTCCGTTATCAACTTGAAAAAGTGCCAGCGAGTCGCTGGT
modifications: listed as DNA, chemistry not fully specified
B11: cr652 (nucleic acid)
guide: GTTTAAGAGCTAAGCTGGAAACAGCATCGCAAGTTTAAATAAGGCTAGTCCGGTATCAACTTGGAAAAGTGGCACCGAGTCGGTGCT
modifications: listed as DNA, chemistry not fully specified
B12: cr621 (nucleic acid)
guide: GTTTAAGAGCTAAGCTGGAAACAGCATAGCAAGTTTAAATAAGACTAGTTCGTTATCAACGTGAAAACGTGGCACCAAGTTGGTGCT
modifications: listed as DNA, chemistry not fully specified
B13: cr394 (nucleic acid)
guide: GTTTAAGAGCTAAGCTGGAAACAGCATAGCAAGTTTAAATAAGGCTAGTCCGTTATCAACTTGAAACAGTGGCACCGAGTCGGTGCT
modifications: listed as DNA, chemistry not fully specified
B14: cr805 (nucleic acid)
guide: GTTTAAGAGCTAAGCTGGAAACAGCATAGCAAGTTTAAATAGGGCTAGTCCGTTATCAACTTGATAAAGTGGCACCGAGTCGGTGCT
modifications: listed as DNA, chemistry not fully specified
B15: cr506 (nucleic acid)
guide: GTTTAAGAGCTAAGCTGGAAACAGCATAGCAAGTTTAAATAAGCCTAGTGCGTTATCAACTTGAAAAAGTGGGACCGAGTCGGTCCT
modifications: listed as DNA, chemistry not fully specified
B16: cr470 (nucleic acid)
guide: GTTTAAGAGCTAAGCTGGAAACATCATAGCAAGTTTAAATAAGGCTAGTCCGTTATCAACTTGAAAAAGTGGCACCGAGTCGGTGCT
modifications: listed as DNA, chemistry not fully specified
B17: cr219 (nucleic acid)
guide: GTTTAAGAGCTAAGCTGGAAACAGCATAGCAAGTTTAAATAAGCCTAGTGCGTTATCAACTTGAGAAAGTGGCACCGAGTCGGTGCT
modifications: listed as DNA, chemistry not fully specified
B18: cr477 (nucleic acid)
guide: GTTTAAGAGCTAAGCTGGAAACAGCATAGCAAGTTTAAATAAGGCTAGTCCGTTACCAACTTGAAAAAGTGGCACCGAGTCGGTGCT
modifications: listed as DNA, chemistry not fully specified
B19: cr733 (nucleic acid)
guide: GTTTAAGAGCTAAGCTGGAAACAGCATAGCAAGTTTAAATAAGGCTAGTCCGTTATCAACTTGAAAAAGTGGCAAAGAGTCTTTGCT
modifications: listed as DNA, chemistry not fully specified
B20: cr678 (nucleic acid)
guide: GTTTAAGAGCTAAGCTGGAAACAGCATAGCAAGTTTAAATAAGGCTAGTCCGTTATCAACTTGAAAAAGTGGCACCGAGTCGGTACT
modifications: listed as DNA, chemistry not fully specified
B21: cr818 (nucleic acid)
guide: GTTTAAGAGCTAAGCTGGAAACAGCATAGGAAGTTTAAATAAGGCTAGTCCGTTATCAACTTGAAAAAGTGGCACCGAGTCGGTGCT
modifications: listed as DNA, chemistry not fully specified
B22: cr119 (nucleic acid)
guide: GTTTAAGAGCTAAGCTGGAAACAGCATAGCAAGTTTAAATAAGGCTAGTCCGTTATCAACTTGAAAAATTGGCACCGAGTCGGTGCT
modifications: listed as DNA, chemistry not fully specified
B23: cr215 (nucleic acid)
guide: GTTTAAGAGCTAAGCTGGAAACAGCATAGCAAGTTTAAATAAGGCTAGTCCGTTATCAACTTGAAAAAGTAGCACCGAGTCGGTGCT
modifications: listed as DNA, chemistry not fully specified
B24: cr585 (nucleic acid)
guide: GTTTAAGAGCTAAGCTGGAAACAGCATAGCAAGTTTAAATAAGGCTAGTCCGTTATCAACTTGAAAAAGTGGCTCCGAGTCGGAGCT
modifications: listed as DNA, chemistry not fully specified
B25: cr516 (nucleic acid)
guide: GTTTAAGAGCTAAGCTGGAAACAGCATAGCAAGTTTAAATAAGCCTAGTGCGTTATCAGCTTGAAAAAGCGGCACCGAGTCGGTGCT
modifications: listed as DNA, chemistry not fully specified
B26: cr931 (nucleic acid)
guide: GTTTAAGAGCTAAGCTGGAAACAGCATAGCAAGTTTAAATAAGGCTAGTCCGTTATCAACTTGAAAAAGTGGCCCTGAGTCAGGGCT
modifications: listed as DNA, chemistry not fully specified
B27: cr517 (nucleic acid)
guide: GTTTAAGAGCTAAGCTGGAAACAGCATAGCAAGTTTAAATAAGGCTAGTCCGTTATCAACTTGAAAAAGTGGCACCGAGTCTGTGCT
modifications: listed as DNA, chemistry not fully specified
B28: cr879 (nucleic acid)
guide: GTTTAAGAGCTAAGCTGGAAACAGCATAGCAAGTTTAAATAAGGCGAGTCCGTCAGCAACTTGAAAAAGTGGCACCGAGTCGGTGCT
modifications: listed as DNA, chemistry not fully specified
B29: cr886 (nucleic acid)
guide: GTTTAAGAGCTAAGCTGGAAACAGCATAGCAAGTTTAAATAAGGCTAGTCCGTTATCAAATAGAAATATTGGCAGCGAGTCGCTGCT
modifications: listed as DNA, chemistry not fully specified

This series has as its system K562 CRISPRi cells. The experiment in a line: Constant region variant library pooled growth screen, K562. In kind it is cell-based, human. The conditions noted are these: sgRNA constant region variants; activity relative to the original, un-modified constant region cr995. The essentials: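 Pooled library transduced into K562 CRISPRi cells in duplicate, puromycin-selected, grown at >2000× coverage and sampled after 4 to 8 days. Phenotypes per targeting sequence:constant region pair were normalized to the unmodified-scaffold pairing to give relative activity.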
As for B1, the Mean relative activity came to 0.8207.
For B2 the value was 0.8019; for B3, 0.7978.
Then B4, with 0.8183; and B5, with 0.8063.
For the molecule B6, the Mean relative activity worked out at 0.7776.
For B7 the value was 0.8037; for B8, 0.8101; for B9, 0.7949.
With B10, the Mean relative activity stood at 0.8153.
B11 showed a Mean relative activity of 0.7959.
For B12 the value was 0.818.
The molecule B13 yielded a Mean relative activity of 1.055.
B14: the Mean relative activity is listed as 0.7927.
As to B15, the Mean relative activity stood at 0.8078.
Take B16: the Mean relative activity worked out at 0.809.
Turning to B17, the Mean relative activity was 0.7779.
Consider B18, for which the Mean relative activity is on record as 1.055.
Then B19, with 0.807; and B20, with 0.8081; and B21, with 0.7972.
B22: the Mean relative activity was found to be 0.7902.
For B23 the value was 0.8059; for B24, 1.056; for B25, 0.8009.
Then B26, with 0.8044; and B27, with 0.8173; and B28, with 0.798.
For B29, the Mean relative activity is listed as 0.7791.
